Test results published in article PMC6237974.

Legend:
[1] = tested on: VgrR-P (phosphorylated by VgrS + ATP) (Xanthomonas campestris pv. campestris 8004); test: MST; settings: MST: 50 mM Tris-HCl pH 7.4, 150 mM NaCl, 10 mM MgCl2, 0.05% Tween-20; EMSA: 10 mM Tris-HCl pH 7.5, 50 mM KCl, 1 mM DTT, 50 ng poly(dI:dC), 10 mM EDTA, 28 C
[2] = target: cytoplasmic region of VgrS that contained the HAMP and transmitter regions (Xanthomonas campestris pv. campestris 8004); test: not stated; Supplementary Fig. 4b and 4c; Prc with the cytoplasmic region of VgrS
[3] = target: VgrS sensor; test: SPR
[4] = target: VgrS sensor (Xanthomonas campestris pv. campestris 8004); test: SPR; Biacore 3000, VgrS sensor trapped on a CM5 chip, Prc forms injected at 30 μl/min, 25 °C, PBST pH 7.4
[5] = target: Prc^S475A monomer (Xanthomonas campestris pv. campestris 8004); test: SEC + AUC; Prc^S475A separated by gel filtration; sedimentation velocity of each peak at 20 °C, sodium phosphate buffer pH 8.0 plus 150 mM NaCl
[6] = target: VgrS sensor (Xanthomonas campestris pv. campestris 8004); test: MST; VgrS sensor labelled with NT-647, titrated with Prc forms in NTA buffer (300 mM NaCl, 50 mM sodium phosphate, pH 7.0) with 0.05% Tween; Monolith NT.115; three replicates

In the case of PXC_3300 promoter probe, the Kd [1] is reported as 30.7 µM.

Substance “Prc (form not told, binding to the cytoplasmic region of VgrS) (enzyme)” has a Kd [2] of 191 µM.

Prc^S475A monomer gave a Ka ([3]; enzyme) of 29500 M⁻¹ and a koff ([3]; enzyme) of 0.00842 s⁻¹.

For Prc^S475A monomer (enzyme), the Kd [4] was 33.9 µM, the stoichiometry N [5] was 3 and the Kd [6] was 0.65 µM.

Substance PrcΔPDZ^S475A (enzyme) has a Kd [6] of 1.95 µM.

“recombinant Prc^S475A containing peptidase and DUF regions” was tested, and the Ka ([3]; domain or fragment) was 44700 M⁻¹.

Substance “recombinant Prc^S475A containing peptidase and DUF regions (domain or fragment)” has a Kd [4] of 22.4 µM and a Kd [6] of 0.27 µM.
